Experimental data from patent US9766239.
Where no end group is shown, it is not given here. scaffold 1571 = not defined here

B1: nVLP55-55-1571 (designed binder)
peptide: VWARKNNSRSKDFNAGWGSC(scaffold 1571)
modifications: reading uncertain; also: two peptides coupled by Cys to scaffold 1571 (dimer)
B2: Mut Peptide-81 (peptide)
peptide: AWARSNNSRSKAFNLGWGSC
B3: nVLP94-94-1571 (designed binder)
peptide: RWVRVKLRSHTKLNRYIGSC(scaffold 1571)
modifications: reading uncertain; also: two peptides coupled by Cys to scaffold 1571 (dimer)
B4: nVLP60-60-1571 (designed binder)
peptide: DWARKNNKRKMNFNLGWGSC(scaffold 1571)
modifications: reading uncertain; also: two peptides coupled by Cys to scaffold 1571 (dimer)
B5: Mut Peptide-60 (peptide)
peptide: DWARKNNKRKMNFNLGWGSC
B6: nVLP78-78-1571 (designed binder)
peptide: SWARSNNKRSKAFNLGWGSC(scaffold 1571)
modifications: reading uncertain; also: two peptides coupled by Cys to scaffold 1571 (dimer)
B7: nVLP53-53-1571 (designed binder)
peptide: VWARKNNKRKKDFNAGWGSC(scaffold 1571)
modifications: reading uncertain; also: two peptides coupled by Cys to scaffold 1571 (dimer)
B8: Mut Peptide-53 (peptide)
peptide: VWARKNNKRKKDFNAGWGSC
B9: Mut Peptide-78 (peptide)
peptide: SWARSNNKRSKAFNLGWGSC
B10: nVLP93-93-1571 (designed binder)
peptide: RWVRVKLRSHTELNRYIGSC(scaffold 1571)
modifications: reading uncertain; also: two peptides coupled by Cys to scaffold 1571 (dimer)
B11: nVLP92-92-1571 (designed binder)
peptide: RWHRVKLRSHTELNRYIGSC(scaffold 1571)
modifications: reading uncertain; also: two peptides coupled by Cys to scaffold 1571 (dimer)
B12: Mut Peptide-93 (peptide)
peptide: RWVRVKLRSHTELNRYIGSC
B13: Mut Peptide-92 (peptide)
peptide: RWHRVKLRSHTELNRYIGSC
B14: Mut Peptide-94 (peptide)
peptide: RWVRVKLRSHTKLNRYIGSC
B15: nVLP81-81-1571 (designed binder)
peptide: AWARSNNSRSKAFNLGWGSC(scaffold 1571)
modifications: reading uncertain; also: two peptides coupled by Cys to scaffold 1571 (dimer)

Assays:
[1] = molecular target: Norovirus surrogate virus-like particle, type GII.4 Minerva strain (human Norovirus GII.4 Minerva strain); test: direct ELISA on purified GII.4 nVLP
[2] = molecular target: Norovirus surrogate virus-like particle, type GII.4 Minerva strain (human Norovirus GII.4 Minerva strain); test: SPR, unpurified peptide against nVLP GII.4
[3] = molecular target: Norovirus surrogate virus-like particle, type GII.4 Minerva strain (human Norovirus GII.4 Minerva strain); test: capture of VLP from a dilute solution by the synbody
[4] = molecular target: GII.4 Sydney# Norovirus VLP (Norovirus GII.4 Sydney strain); test: as above

| Binder | Kd [1] [nM] | % Stability [2] [%] | Avg Binding (Spot 1/2) [2] | koff [2] [s⁻¹] | Enrichment Factor from 1 ng/µL solution [3] | Enrichment Factor from 1 ng/µL solution [4] |
| --- | --- | --- | --- | --- | --- | --- |
| B1 | 9 |  |  |  |  |  |
| B2 |  | 45 | 128 | 0.00455 |  |  |
| B3 | 1 |  |  |  | 7 | 3 |
| B4 | 2 |  |  |  |  |  |
| B5 |  | 44 | 134 | 0.00487 |  |  |
| B6 | 5 |  |  |  |  |  |
| B7 | 1 |  |  |  |  |  |
| B8 |  | 51 | 189 | 0.00408 |  |  |
| B9 |  | 46 | 169 | 0.00431 |  |  |
| B10 | 4 |  |  |  | 10 | 3 |
| B11 | 3 |  |  |  | 3 |  |
| B12 |  | 60 | 274 | 0.00332 |  |  |
| B13 |  | 57 | 230 | 0.00355 |  |  |
| B14 |  | 63 | 358 | 0.00294 |  |  |
| B15 | 3 |  |  |  |  |  |
